Laboratory results: patent US7847064B2, “Methods and compositions for regulating gene expression in plant cells” (Donald Danforth Plant Science Center, priority 2004, dated 2010)

What was measured:
[1] = tested on: non-transgenic BY-2 protoplasts; experiment: GUS activity of Box II/CaMV 35S chimeric promoters in non-transgenic BY-2 protoplasts; format: cell-based, tobacco; conditions: for increase in expression level above the construct without Box II: versus p-48CaMV and p-90CaMV respectively, normalized against GFP; for stimulation of gene expression versus the construct without Box II: Box II at 7 nucleotides from the TATA box plus multiples of 0.5 turns of DNA helix
Excerpt: Specifically, the Box II element was fused to the 5′ end of the chimeric promoters with a space of 7 nucleotides from the TATA box plus 1, 1.5, 3.0, 3.5, 5.0 and 5.5 “turns of DNA helix” (one turn=10.4 base pairs). The chimeric promoters were then inserted into a cassette with the uidA coding sequencing and Nos terminator.
Construction of Plasmids Comprising the Box II Element and Different Lengths of the CaMV 35S Promoter—To construct Box II and CaMV 35S chimeric promoters, the Box II element was introduced into CaMV 35S promoter sequences of different lengths through PCR reactions using Pfu DNA polymerase (Stratagen Systems, Kirkland, Wis.). Forward primers for the PCR reactions were designed to have a HindIII restriction site, followed by the Box II sequence, which was followed by part of the 5′ CaMV promoter at desired positions (see FIG. 12 and Table 2 for specific primer sequences). The GUS 3′ primer (SEQ ID NO:36) was used as reverse primer for all reactions.
The p35S:GUS plasmid was used as template in the foregoing reactions. In the p35S:GUS plasmid, a NcoI restriction site was located between the CaMV 35S promoter and the GUS coding sequence. Thus, a NcoI site was present in all PCR products. The PCR products were restricted with HindIII/NcoI and cloned into a pE:GUS vector to replace the E promoter through the same set of restriction sites. The constructed plasmids containing the chimeric promoters labeled 1 through 6 in Table 2 were named p-1.0hBoxII−48CaMV:GUS, p-1.5hBoxII−53CaMV:GUS, p-3.0hBoxII−69CaMV:GUS, p-3.5hBoxII−74CaMV, p-5.0hBoxII−90CaMV:GUS, and p-5.5hBoxII−95CaMV:GUS, respectively. The controls for this set of plasmids were generated using primer sets 1.5h-53CaMV-c (SEQ ID NO:43)/GUS3′; −3.5h-74CaMV-c (SEQ ID NO:44)/GUS3′ and −5.5h-95CaMV-c (SEQ ID NO:45)/GUS3′, which products were cloned into pE:GUS with HindIII/NcoI to replace the E promoter. The derived plasmids/constructs were named p-53CaMV:GUS, p-74CaMV:GUS and p-95CaMV:GUS, respectively.
The foregoing constructs were then transfected into non-transgenic BY-2 protoplasts, and the resulting GUS activity determined.

[2] = tested on: Box IIm1 element; experiment: Electrophoretic mobility shift assay; format: binding; conditions: 100 ng purified protein, 32P-labeled Box IIm1 DNA probe
Method: The purified mutant proteins were then analyzed by SDS-PAGE to confirm that each protein was its expected size (FIG. 16(B)). To confirm that each of the mutant proteins bind to the DNA target, i.e., the Box II element and/or its operational derivatives, gel mobility shift assays were carried out with the purified recombinant proteins (FIG. 16(C)). The electrophoretic mobility shift assays were carried out essentially as described in Yin and Beachy (1995). 100 ng of proteins purified from the transformed E. coli were incubated with ^32P-labeled Box IIm1 DNA probe followed by electrophoresis in a 5% acrylamide gel (Yin et al., 1997) (FIG. 16(C)).

[3] = tested on: pBII-48Ca::GUS; experiment: Transactivation of pBII-48Ca::GUS by RF2a and RF2a mutants in BY-2 protoplasts; format: cell-based, tobacco; conditions: co-transfected with pBII-48Ca::GUS, 24 hours after electroporation, normalized with GFP
Method: The relative activity of RF2a and the RF2a mutants (described in Example 8) was then measured. First, a chimeric promoter was developed with a single copy of the Box II element fused to the 5′ end of a minimal CaMV 35S promoter comprising nucleotides −48 to +8 (SEQ ID NO:66). The chimeric promoter was ligated to the uidA coding sequence to create the reporter pBII-48Ca::GUS.
To analyze the function of the several domains of RF2a, effectors were created by inserting coding sequences of RF2a or the mutants of RF2a (described in Example 8) downstream of the enhanced CaMV 35S promoter in the pMON999 vector (a gift from Monsanto Company, St. Louis, Mo.). The resultant constructs, p35S::RF2a, p35S::RF2a-ΔP, p35S::RF2a-ΔQ, p35S::RF2a-ΔPΔA, p35S::RF2a-ΔPΔQ and p35S::RF2a-3Δ, were co-transfected into BY-2 protoplasts with pBII-48Ca::GUS (FIG. 17(A)). Plasmid pCat-GFP, in which the GFP gene was driven by CaMV 35S promoter, was co-introduced to serve as an internal control. The following describes, in greater detail, the construction of these vectors and the methods employed in transfecting the same into BY-2 protoplasts.
Plasmids for protoplast transfection—The coding sequences for mutants of RF2a were released from pET28a-derived plasmids and cloned into the plant expression vector pMON999 (a gift from Monsanto Company, St. Louis, Mo.) to place each gene downstream of an enhanced CaMV 35S promoter, followed by a nopaline synthase terminator sequence. The resulting effector constructs were named p35S::RF2a, p35S::RF2a-ΔP, p35S::RF2a-ΔQ, p35S::RF2a-ΔPΔA, p35S::RF2a-ΔPΔQ and p35S::RF2a-3Δ. The reporter gene construct, pBII-48Ca::GUS, was built using PCR to introduce the Box II element into a minimal CaMV 35S promoter comprising nucleotides −48 to +8 with primers BII-48Ca 5′ (SEQ ID NO:53) (which contained the Box II element) and GUS 3′ (SEQ ID NO:36) using a p35S:GUS plasmid as template. The PCR product was restricted with HindIII and NcoI, and the resulting fragment was inserted into p35S::GUS to replace the original 35S promoter.
Transfection of tobacco BY-2 protoplasts—The protoplasts were isolated from tobacco cell line BY-2 as described by Watanabe et al. (1987). Approximately one million protoplasts were transfected by electroporation with 20 μg of effector construct DNA, 15 μg of herring sperm DNA, 2.5 μg of reporter gene construct DNA, and 15 μg of pCat-GFP DNA. In samples with reporter gene alone, the total amount of DNA was adjusted by adding 20 μg of herring sperm carrier DNA. The electroporation parameters used were 300 V and 250 microfarads with the Bio-Rad electroporation system (Bio-Rad Laboratories, Hercules, Calif.). Protoplast samples were cultured in Murashige and Skoog medium with 0.4 M mannitol, pH 5.8, at 28° C. The protoplasts were collected 24 hours after electroporation.

[4] = tested on: Nicotiana tabacum cv. Xanthi NN; experiment: Phenotype of transgenic tobacco plants overexpressing RF2a or RF2a mutants; format: in vivo; conditions: CaMV 35S promoter driven, T1 generation, greenhouse
Excerpt: (Yin et al., 1997; Petruccelli et al., 2001). […] Fifteen or more independent transgenic tobacco lines were developed with the constructs described below through Agrobacterium-mediated transformation.
Plasmids for Agrobacterium-mediated transformation—The fusion genes described above relating to the plant expression constructs comprising RF2a deletion mutants were released from pMON999-derived plasmids using NotI (blunted) and cloned into the binary vector pGA-E::GUS (Petruccelli et al., 2001) using the blunt HindIII site (downstream of a CaMV 35S promoter sequence). The final plasmids were named pGA-E::GUS/P-35S::ΔP, pGA-E::GUS/P-35S::ΔQ, pGA-E::GUS/P-35S::ΔPΔA and pGA-E::GUS/P-35S::ΔPΔQ. A plasmid encoding full-length RF2a, p35S::RF2a, was also constructed using the methods described herein.
Tobacco transformation—the plasmids described above were introduced into Agrobacterium tumefaciens strain LBA4404 and used for tobacco transformation. Leaf discs from Nicotiana tabacum cv. Xanthi NN were transformed with the various plasmids following the protocol of Horsch et al. (1988). At least 15 independent transgenic lines were produced with each gene construct. Transgenic plants were self-fertilized, and T1 seeds were collected. The T1 seeds were germinated on Murashige and Skoog medium (Murashige and Skoog, 1962) with kanamycin (100 mg/L) selection, and Kan^r seedlings were grown in a greenhouse for observation.
The phenotype caused by 35S::RF2a-ΔPΔA was similar to, but less severe than, the phenotype caused by 35S::RF2a-3Δ. […] (FIG. 19(C)).

p1.0hBoxII−48CaMV: Box II fused to CaMV 35S promoter, 7 nucleotides from TATA box plus 1 turn of DNA helix (DNA TGATCAAAGCTTCCAGTGTGCCCCTGGTCGCAAGACCCTTCCTC; listed as DNA, chemistry not given here)
increase in expression level above the construct without Box II [1]: 6.9 fold

p5.0hBoxII−90CaMV: Box II fused to CaMV 35S promoter, 7 nucleotides from TATA box plus 5.0 turns (DNA TGATCAAAGCTTCCAGTGTGCCCCTGGATCTCCACTGACGTAAG; listed as DNA, chemistry not given here)
increase in expression level above the construct without Box II [1]: 4.7 fold

p-1.5hBox II−53CaMV: Box II fused to CaMV 35S promoter, 7 nucleotides from TATA box plus 1.5 turns (DNA TGATCAAAGCTTCCAGTGTGCCCCTGGATCCTTCGCAAGACCCT; listed as DNA, chemistry not given here)
stimulation of gene expression versus the construct without Box II [1]: much less or no stimulation of gene expression

p-3.5hBox II−74CaMV: Box II fused to CaMV 35S promoter, 7 nucleotides from TATA box plus 3.5 turns (DNA TGATCAAAGCTTCCAGTGTGCCCCTGGGGGATGACGCACAATCC; listed as DNA, chemistry not given here)
stimulation of gene expression versus the construct without Box II [1]: much less or no stimulation of gene expression

p-5.5hBox II−95CaMV: Box II fused to CaMV 35S promoter, 7 nucleotides from TATA box plus 5.5 turns (DNA TGATCAAAGCTTCCAGTGTGCCCCTGGGTGATATCTCCACTGAC; listed as DNA, chemistry not given here)
stimulation of gene expression versus the construct without Box II [1]: much less or no stimulation of gene expression

B1: RF2a-ΔP: RF2a mutant, proline-rich domain removed, SEQ ID NO:68 (protein)
chain: MGHRRAHSEILSLPEDLDLCAAGGGDGPSLSDENDEELFSMFLDVEKLNSTCGASSEAEAESSSAAAHGARPKHQHSLSMDESMSIAEELVGASPGTEGMSSAEAKKAVSAVKLAELALVDPKRAKRIWANRQSAARSKERKMRYIAELERKVQTLQTEATTLSAQLALLQRDTSGLTTENSELKLRLQTMEQQVHLQDALNDTLKSEVQRLKVATGQMANGGGMMMNFGGMPHQFGGNQQMFQNNQAMQSMLAAHQLQQLQLHPQAQQQQVLHPQHQQQQPLHPLQAQQLQQAARDLKMKSPMGGQSQWGDGKSGSSGN
modifications: This sequence was artificially derived and/or created by the inventors.
binding in gel mobility shift assay [2]: bind to the Box IIm1 element
activation function (relative GUS activity) [3]: greater than that of full-length RF2a
phenotype of transgenic tobacco plants [4]: did not exhibit abnormal phenotypes

B2: RF2a-ΔQ: RF2a mutant, glutamine-rich domain removed, SEQ ID NO:69 (protein)
chain: MNREKSPIPGDGGDGLPPQATRRAGPPAAAAAAEYDISRMPDFPTRNPGHRRAHSEILSLPEDLDLCAAGGGDGPSLSDENDEELFSMFLDVEKLNSTCGASSEAEAESSSAAAHGARPKHQHSLSMDESMSIKAEELVGASPGTEGMSSAEAKKAVSAVKLAELALVDPKRAKRIWANRQSAARSKERKMRYIAELERKVQTLQTEATTLSAQLALLQRDTSGLTTENSELKLRLQTMEQQVHLQDALNDTLKSEVQRLKVATGQMANGGGMMMNFGGMPHQ
modifications: This sequence was artificially derived and/or created by the inventors.
binding in gel mobility shift assay [2]: bind to the Box IIm1 element
activation function (relative GUS activity) [3]: greater than that of full-length RF2a
phenotype of transgenic tobacco plants [4]: did not exhibit abnormal phenotypes
